For the data set, the target named is ZAP-S (short isoform of zinc-finger antiviral protein) (human, UniProt Q7Z2W4-2 1-699). The data set is described as follows: MST; 5 mM Mg2+. The note with it: protein: recombinant, tags: N-terminal 6xHis-SUMO, label: 3' pCp-Cy5.
Chain of ZAP-S (short isoform of zinc-finger antiviral protein) (Q7Z2W4 other isoform, or with tags, fused parts or gaps): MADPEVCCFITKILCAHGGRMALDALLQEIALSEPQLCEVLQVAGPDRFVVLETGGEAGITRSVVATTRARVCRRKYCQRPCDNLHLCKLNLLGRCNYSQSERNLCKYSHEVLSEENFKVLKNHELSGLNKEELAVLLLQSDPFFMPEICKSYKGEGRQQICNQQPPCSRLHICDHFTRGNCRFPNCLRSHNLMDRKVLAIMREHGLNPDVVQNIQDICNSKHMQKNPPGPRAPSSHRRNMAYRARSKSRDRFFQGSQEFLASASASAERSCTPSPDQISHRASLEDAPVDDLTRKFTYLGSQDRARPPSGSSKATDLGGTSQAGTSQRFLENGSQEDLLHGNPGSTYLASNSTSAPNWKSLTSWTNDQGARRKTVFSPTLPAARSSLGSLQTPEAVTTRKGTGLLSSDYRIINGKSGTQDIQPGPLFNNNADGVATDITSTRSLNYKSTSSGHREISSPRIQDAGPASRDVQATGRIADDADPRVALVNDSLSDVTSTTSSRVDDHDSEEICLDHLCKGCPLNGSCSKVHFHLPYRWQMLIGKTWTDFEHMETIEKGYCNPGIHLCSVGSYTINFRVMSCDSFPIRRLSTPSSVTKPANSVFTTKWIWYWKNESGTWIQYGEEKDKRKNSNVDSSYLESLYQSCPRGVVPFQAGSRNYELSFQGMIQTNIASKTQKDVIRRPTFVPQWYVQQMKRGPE

For the molecule UCGUUUUUAAACGGGUUUGCGGUGUAAGUGCAGCCCGUCUUACACCGU (structured_RNA) [dSL2+3 mutant (SL1 only)], the binding result (hairpin) is “no binding”.

B1: dSL2 mutant (structured_RNA)
RNA: UCGUUUUUAAACGGGUUUGCGGUGUAAGUGCAGCCCGUCUUACACCGUGCGGCACAGGCACUAGUACUGAUGUCGU
As usually defined, the Kd is a measure of binding affinity in units of concentration. B1: the Kd (two consecutive stem-loops) came to 0.672 ± 0.164 µM.

B2: Compensatory mutant (structured_RNA)
RNA: UCGUUUUUAAACGGGUUUGGGGUGUAAGUGCAGCCCGUCUUACACCCUGGGGCACAGGCACUAGUACUGAUGUCCUAUACAGGGCU
Consider B2, for which the Kd (pseudoknot (predicted)) was 0.128 ± 0.029 µM.

B3: dSL3 mutant (structured_RNA)
RNA: UCGUUUUUAAACGGGUUUGCGGUGUAAGUGCAGCCCGUCUUACACCGUAUACAGGGCU
B3: the Kd (shorter pseudoknot (predicted)) was 0.175 ± 0.064 µM.

Source of the values: paper PMC8664833.
